Data on three molecules can be found in article PMC8782923, “A Klotho-derived peptide protects against kidney fibrosis by targeting TGF-β signaling” (Nature Communications, 2022).

Holding throughout (conditions): both partners purified
Assay [1] has as its target T1, Recombinant TGF-β receptor 2 protein (10358-H03H-B; Sino Biological Inc.) (UniProt P37173 23-166).
T1 construct: TGF-β receptor 2, recombinant, 43.4 kDa; also called TβR2; type 2 TGF-β receptor; source: bought: Sino Biological Inc. (>95% as determined by SDS-PAGE)
The experiment in a line: SPR; Biacore T200, 25 °C; TβR2 amine-coupled to a CM5 chip; peptides in PBS injected at 60 μl/min, 180 s injection, 540 s dissociation; 1:1 binding model.

In assay [2] the target is T2, Recombinant TGF-β receptor 2 protein (UniProt P37173 23-166).
T2 construct: TGF-β receptor 2, recombinant, 43.4 kDa, >95% by SDS-PAGE; By its catalogue number probably a human extracellular domain with a carrier tag, biotinylated (surmise); The TβR2 of the microplate assay (10358-H08B) is called human; also called TβR2; type 2 TGF-β receptor; source: bought: Sino Biological Inc. (10358-H03H-B)
T2 sequence (P37173 23-166): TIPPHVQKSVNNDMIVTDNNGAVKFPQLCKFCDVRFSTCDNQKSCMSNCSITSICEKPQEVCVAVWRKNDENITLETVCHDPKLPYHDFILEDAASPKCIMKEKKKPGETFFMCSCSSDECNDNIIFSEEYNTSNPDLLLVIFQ
The experiment in a line: SPR; Biacore T200, 25 °C; TβR2 amine-coupled on a CM5 chip (50 µg/ml in 10 mM acetate pH 4.0); peptides in PBS injected at 60 µl/min, 180 s association, 540 s dissociation; 1:1 binding model.

Assay [3] deals with T3, Human TβR2 (10358-H08B; Sino Biological Inc.) (human, UniProt P37173 23-166).
T3 construct: TGF-β receptor 2, human; source: bought: Sino Biological Inc
T3 sequence (P37173 23-166): as above
Kind of assay: microplate-based fluorescence direct binding assay; TβR2 (10 μg/ml) or BSA coated on a 96-well microplate; FITC-peptide at 50 μg/ml, 1 h at room temperature, washed four times, fluorescence read.

Ends that are not written are not given here.

T1 sequence (P37173 23-166): as above

B1: Klotho-derived peptide 1 (KP1) (peptide, UniProt Q9UEF7 57-86, looked up)
peptide: FQGTFPDGFLWAVGSAAYQTEGGWQQHGKG
notes: Klotho, human; peptide of 30 amino acids from Phe57 to Gly86; 3.229 kDa; the results give Phe57 to Gly86; source: synthetic peptide (GenScript, >95% purity)
Regarding B1, in assay [1], the Kd came to 1.41 µM, the koff worked out at 0.00058 s⁻¹ and the kon amounted to 408 M⁻¹ s⁻¹.

B2: Klotho-derived peptide 1 (peptide, UniProt Q9UEF7 57-86, looked up)
peptide: FQGTFPDGFLWAVGSAAYQTEGGWQQHGKG
notes: Klotho, human, 30 amino acids from Phe57 to Gly86; 3.229 kDa; also called KP1; source: synthetic peptide (GenScript, >95% purity)
With B2, the koff in assay [2] worked out at 0.000578 s⁻¹.

B3: FITC-labeled KP1 (peptide, UniProt Q9UEF7 57-86, looked up)
peptide: FQGTFPDGFLWAVGSAAYQTEGGWQQHGKG
modifications: also: FITC label, position not given here
notes: Klotho, human; peptide of 30 amino acids from Phe57 to Gly86; also called FITC-KP1; source: synthetic peptide, labeled with fluorescein isothiocyanate (FITC)
B3: in assay [3], the binding result is on record as “binds”.
